Source: the Human Domainome abundance scans (Beltran et al. 2025)
± gives the uncertainty stated by the source.

B1: SWI/SNF complex subunit SMARCC1, residues 620 to 663; numbered along this chain, Q92922 (parent)
chain: GREWTEQETLLLLEALEMYKDDWNKVSEHVGSRTQDECILHFLR

Variants of: B1
Assay: abundance fitness (aPCA) (normalised: wild type 0, dead -1); higher = more abundant; growth selection in yeast, the domain comes from the species named
Conditions: Homo sapiens

| Variant | abundance fitness |
| --- | --- |
| V30S | -0.757 ± 0.17 |
| V30A | -0.97 ± 0.29 |
| V30G | -0.792 ± 0.14 |
| V30N | -0.79 ± 0.31 |
| V30L | -0.131 ± 0.098 |
| V30C | -0.277 ± 0.13 |
| V30P | -0.635 ± 0.12 |
| V30M | -0.019 ± 0.15 |
| V30R | -0.847 ± 0.16 |
| V30H | -1.1 ± 0.27 |
| V30E | -1.18 ± 0.32 |
| V30Q | -0.764 ± 0.13 |
| V30T | -0.419 ± 0.12 |
| V30Y | -1.05 ± 0.27 |
| E37A | -0.283 ± 0.1 |
| E37M | -0.4 ± 0.23 |
| E37P | -0.846 ± 0.18 |
| E37N | -0.717 ± 0.41 |
| E37Q | -0.303 ± 0.18 |
| E37D | 0.021 ± 0.11 |
| E37F | -1.02 ± 0.37 |
| E37G | -0.722 ± 0.21 |
| E37R | -0.63 ± 0.15 |
| E37V | -1.01 ± 0.23 |

| Variant | abundance fitness |
| --- | --- |
| E37T | -0.738 ± 0.13 |
| E37L | -1.08 ± 0.24 |
| E37H | -0.668 ± 0.14 |
| E37K | -0.546 ± 0.23 |
| E37S | -0.533 ± 0.14 |
| K25G | -0.038 ± 0.055 |
| K25N | -0.245 ± 0.22 |
| K25E | -0.14 ± 0.11 |
| K25A | 0.091 ± 0.061 |
| K25H | -0.045 ± 0.096 |
| K25M | 0.194 ± 0.16 |
| K25P | -0.377 ± 0.083 |
| K25Q | -0.122 ± 0.07 |
| K25W | -0.562 ± 0.13 |
| K25L | 0.072 ± 0.056 |
| K25R | 0.072 ± 0.067 |
| K25C | -0.064 ± 0.075 |
| K25D | -0.331 ± 0.11 |
| K25Y | -0.473 ± 0.12 |
| K25I | -0.426 ± 0.13 |
| K25T | -0.129 ± 0.088 |
| K25S | -0.011 ± 0.062 |
| D22C | -0.122 ± 0.098 |
| D22E | -0.017 ± 0.1 |

| Variant | abundance fitness |
| --- | --- |
| D22L | -0.44 ± 0.12 |
| D22H | -0.264 ± 0.14 |
| D22T | -0.581 ± 0.33 |
| D22S | 0.04 ± 0.1 |
| D22G | -0.419 ± 0.097 |
| D22Y | -0.714 ± 0.16 |
| D22V | -0.526 ± 0.14 |
| D22I | -0.733 ± 0.17 |
| D22Q | -0.112 ± 0.073 |
| D22A | -0.447 ± 0.096 |
| V26W | -0.494 ± 0.19 |
| V26C | 0.543 ± 0.29 |
| V26R | -0.424 ± 0.091 |
| V26E | -0.406 ± 0.17 |
| V26A | 0.006 ± 0.083 |
| V26T | 0.029 ± 0.11 |
| V26P | -0.919 ± 0.22 |
| V26N | -0.533 ± 0.41 |
| V26L | -0.513 ± 0.09 |
| V26H | -0.683 ± 0.2 |
| V26D | -0.768 ± 0.21 |
| V26Q | -0.533 ± 0.21 |
| V26I | -0.051 ± 0.19 |
| V26Y | -0.57 ± 0.26 |

| Variant | abundance fitness |
| --- | --- |
| V26G | -0.686 ± 0.21 |
| E28W | 0.08 ± 0.32 |
| E28V | -0.311 ± 0.083 |
| E28I | -0.16 ± 0.19 |
| E28H | -0.723 ± 0.31 |
| E28T | -0.084 ± 0.078 |
| E28C | -0.2 ± 0.12 |
| E28R | -0.013 ± 0.066 |
| E28Y | -0.404 ± 0.13 |
| E28N | -0.21 ± 0.14 |
| E28L | -0.31 ± 0.08 |
| E28D | 0.373 ± 0.27 |
| E28G | -0.112 ± 0.085 |
| E28M | -0.8 ± 0.21 |
| E28Q | -0.181 ± 0.078 |
| E28A | -0.434 ± 0.097 |
| E28K | -0.269 ± 0.11 |
| H29R | -0.153 ± 0.1 |
| H29C | -0.382 ± 0.12 |
| H29L | -0.264 ± 0.074 |
| H29P | -0.796 ± 0.16 |
| H29F | -0.201 ± 0.12 |
| H29I | -0.469 ± 0.44 |
| H29E | -0.551 ± 0.25 |

| Variant | abundance fitness |
| --- | --- |
| H29Y | -0.014 ± 0.095 |
| H29V | -0.349 ± 0.11 |
| H29N | -0.173 ± 0.13 |
| H29T | -0.419 ± 0.11 |
| H29S | -0.344 ± 0.083 |
| H29Q | -0.11 ± 0.13 |
| H29G | -0.803 ± 0.17 |
| H29M | -0.209 ± 0.09 |
| F42A | 0.053 ± 0.088 |
| F42N | 0.429 ± 0.11 |
| F42K | 0.592 ± 0.087 |
| F42M | -0.2 ± 0.14 |
| F42C | -0.286 ± 0.15 |
| F42L | -0.29 ± 0.073 |
| F42G | 0.307 ± 0.073 |
| F42E | 0.767 ± 0.18 |
| I39F | -0.043 ± 0.065 |
| I39M | 0.217 ± 0.08 |
| I39H | 0.456 ± 0.053 |
| I39R | 0.456 ± 0.049 |
| I39N | 0.35 ± 0.076 |
| I39P | -0.378 ± 0.085 |
| I39K | 0.564 ± 0.081 |
| I39Q | 0.238 ± 0.062 |

| Variant | abundance fitness |
| --- | --- |
| I39E | 0.513 ± 0.082 |
| I39L | 0.142 ± 0.051 |
| I39G | -0.004 ± 0.064 |
| I39Y | 0.117 ± 0.074 |
| I39A | 0.178 ± 0.066 |
| I39W | -0.333 ± 0.15 |
| I39S | 0.32 ± 0.047 |
| T34W | -0.416 ± 0.13 |
| T34K | 0.165 ± 0.086 |
| T34L | -0.257 ± 0.097 |
| T34R | 0.137 ± 0.084 |
| T34I | -0.4 ± 0.36 |
| T34G | 0.03 ± 0.12 |
| T34Q | 0.199 ± 0.14 |
| T34P | -0.222 ± 0.25 |
| T34N | 0.075 ± 0.082 |
| T34V | -0.119 ± 0.18 |
| T34D | -0.036 ± 0.23 |
| T34Y | -0.715 ± 0.3 |
| T34F | -0.783 ± 0.36 |
| T34E | 0.314 ± 0.22 |
| D21R | 0.268 ± 0.059 |
| D21T | -0.17 ± 0.14 |
| D21W | -0.578 ± 0.23 |

| Variant | abundance fitness |
| --- | --- |
| D21N | 0.227 ± 0.16 |
| D21Q | 0.067 ± 0.08 |
| D21K | 0.294 ± 0.076 |
| D21M | -0.363 ± 0.17 |
| D21P | 0.019 ± 0.13 |
| D21I | -0.601 ± 0.34 |
| D21V | -0.419 ± 0.094 |
| D21S | -0.078 ± 0.088 |
| L40I | -0.138 ± 0.085 |
| L40A | 0.28 ± 0.066 |
| L40E | 0.122 ± 0.1 |
| L40C | 0.108 ± 0.09 |
| L40D | 0.319 ± 0.058 |
| L40H | 0.201 ± 0.061 |
| L40Y | 0.213 ± 0.079 |
| L40K | 0.171 ± 0.083 |
| L40P | -0.299 ± 0.067 |
| L40T | 0.206 ± 0.057 |
| L40F | -0.074 ± 0.074 |
| L40M | 0.057 ± 0.13 |
| L40G | 0.049 ± 0.089 |
| L40W | 0.326 ± 0.14 |
| L40Q | 0.204 ± 0.09 |
